Data as given in patent publication US9976167B2, “Group of glycosyltransferases and use thereof” (Shanghai Institutes For Biological Sciences, Chinese …, priority 2012, dated 2018).
Where a chain is given by its changes, count along the chain named.

B1: gGT29-7: glycosyltransferase protein with 446 amino acids, SEQ ID NO.: 61 (protein)
chain: MDNQKGRISIALLPFLAHGHISPFFELAKQLAKRNCNVFLCSTPINLSSIKNRVSDKDSSASIKLVELHLPSSPDLPPHYHTTNGLPSHLMIPLRNAFDTAGPTFSEILKTLNPDLLIYDFNPSWAPEIASSHNIPAVCFIIGGAASSSMSLHSFKNPGEKYPFLDFDDNSNITPEPPSADNMKLLINFMTCFERSCDIILIKSFRELEGKYFDFFSTLSDKTLVPVGPLVQDPMGHNEDPKTEQFINWLDKRAESTVVFVCFGSECFLSNEELEEVAIGLEISMVNFIWAVRLIEGEKKGVLPEGFVQRVGDRGLVVEEWAPQARILGHSSTGGFVSHCGWNSITESMKFGVPVIAMARHFDQPLNGKLAAEVGVGMEVVRDENGKYKREGIAEVIRKVVVEKSGEVIRRKARELSEKMKEKGEQEIDRVVEELVQICKKKKDEQ
modifications: Panax ginseng; gGT29-7
B2: gGT25: glycosyltransferase protein with 475 amino acids, amino acid sequence SEQ ID NO.: 2, cloned from P. ginseng cDNA (protein)
chain: MKSELIFLPAPAIGHLVGMVEMAKLFISRHENLSVTVLIAKFYMDTGVDNYNKSLLTNPTPRLTIVNLPETDPQNYMLKPRHAIFPSVIETQKTHVRDIISGMTQSESTRVVGLLADLLFINIMDIANEFNVPTYVYSPAGAGHLGLAFHLQTLNDKKQDVTEFRNSDTELLVPSFANPVPAEVLPSMYVDKEGGYDYLFSLFRRCRESKAIIINTFEELEPYAINSLRMDSMIPPIYPVGPILNLNGDGQNSDEAAVILGWLDDQPPSSVVFLCFGSYGSFQENQVKEIAMGLERSGHRFLWSLRPSIPKGETKLQLKYSNLKEILPVGFLDRTSCVGKVIGWAPQVAVLGHESVGGFLSHCGWNSTLESVWCGVPVATWPMYGEQQLNAFEMVKELGIAVEIEVDYKKDYFNMKNDFIVRAEEIETKIKKLMMDENNSEIRKKVKEMKEKSRAAMSENGSSYNSLAKLFEEIM
modifications: Panax ginseng; gGT25
B3: gGT25-1: glycosyltransferase protein with 475 amino acids, SEQ ID NO.: 16 (protein)
chain: B2 chain with S281T, K324E, S355A, K410N, D411E, K416N, N438K, A455L
modifications: Panax ginseng; gGT25-1
B4: gGT25-3: glycosyltransferase protein with 475 amino acids, SEQ ID NO.: 18 (protein)
chain: B2 chain with R110Q
modifications: Panax ginseng; gGT25-3
B5: gGT29-5: glycosyltransferase protein with 446 amino acids, SEQ ID NO.: 57 (protein)
chain: MDNQKGRISIVMLPFLAHGHISPFFELAKHLSKRNCNIFLCSTPINLSSIKNRISDKDSSASIKLVELHLPSSPDLPPHYHTTNGLPSHLMVPLRNAFETAAPTFSEILKTLNPDLLIYDFNPSWAPEIASSHNIPAVCFIIGGAASFSMSLHSFKNPGEKYPFLDFDDNSNITPEPPSADNMKLLLDFMTCFERSCDIILIKSFRELEGKYIDLLSTLSDKTLVPVGPLVQDPMGHNEDPKTEQIINWLDKRAESTVVFVCFGSEYFLSNEELEEVAIGLEISMVNFIWAVRLIEGEKKGVLPEGFVQRVGDRGLVVEGWAPQARILGHSSTGGFVSHCGWSSIAESMKFGVPVIAMARHLDQPLNGKLAAEVGVGMEVVRDENGKYKREGIAEVIRKVVVEKSGEVIRRKARELSEKMKEIGEQLIDRAVEELVQICKKKKDEQ
modifications: Panax ginseng; gGT29-5

Experiments:
Assay type in all cases: biochemical
[1] = Glycosyltransfering reaction with crude enzyme, substrate F2; settings: crude enzymes of Example 21 (E. coli expression products); 35° C., 12 hrs; TLC
Experimental: (§1) According to the method as in Example 4, the cell lysate of recombinant yeasts expressing gGT13 and gGT30 were used to catalyze PPD and PPT.
(§2) The lysate supernatant of the recombinant yeast expressing empty vectors was used as control. The reaction was conducted under 35° C. for 12 hrs, and then stopped by adding 100 μL of butanol. The product were extracted, dried in vacuum, and dissolved in methanol.
(§3) The glycosyltransfering reactions of ginsenosides Rh2 and F2 were catalyzed by using the lysate supernatant of the recombinant yeasts expressing 3GT1, 3GT2, 3GT3 and 3GT4 as crude enzymes. The 100 μL reaction system is shown as Table 3. The reaction was conducted under 35° C. for 12 hrs, and then stopped by adding 100 μL of butanol. The product were extracted, dried in vacuum, and dissolved in methanol.

[2] = Glycosyltransfering activities on ginsengenins and saponins: glycosylation site and specificity (summary); settings: for glycosylation site: The first glycosyl at C-3 / glycosylation site: C6 / glycosylation site: C20: Table 2, tetracyclic triterpenoid substrates; for extension of carbohydrate chain: crude enzyme: lysate supernatant of recombinant yeast, UDP-glucose, 35° C., 12 hrs, TLC
Experimental: More than 100 predicted cDNA sequences of glycosyltransferases were extracted from the published expression profile data of the Panax plant. 60 cDNAs with full length were cloned, expressed, and subjected to the analysis of glycosyltransfering reaction.
(§4) The lysate supernatant of the recombinant yeasts expressing the empty vector was used as control.
(§5) The reaction was conducted under 35° C. for 12 hrs, then stopped by adding 100 μL of butanol. The product were extracted, dried in vacuum, and dissolved in methanol.
as §3, with “ginsenosides” for “ginsenosides Rh2”, “ginsengenins” for “F2”, “lysis” for “lysate”, “enzymes. The lysis supernatant of recombinant E. coli expressing empty vectors was used as control.” for “enzymes.”, “hrs,” for “hrs, and”
as §2, §3

[3] = Glycosyltransfering reaction with crude enzyme, substrate Rh2; settings: crude enzymes of Example 21 (E. coli expression products); 35° C., 12 hrs; TLC
[4] = Glycosyltransfering reaction with crude enzyme, substrate PPD; settings: for glycosylation of C20-OH of PPD (product CK): crude enzyme: lysate supernatant of recombinant yeast, UDP-glucose
Experimental: as §4, §5
(§6) The reaction products were first detected by thin layer chromatography (TLC).
(§7) The converted products of gGT25 were further identified by HPLC (FIG. 10 and FIG. 11). The retention time of peak 2 was identical to that of the CK standard sample; the retention time of peak 3 was identical to that of PPD. […] Peak 1, also present in the profile of the negative control, indicated its irrelevance to the conversion of PPD. 3 peaks were shown in FIG. 11, the retention time of peak 1 was identical to that of F1 standard sample and peak 3 was identical to that of PPT. […] Peak 2, also present in the profile of the negative control, indicated its irrelevance to the conversion of PPT.
as §1
The cell lysis supernatant of the recombinant E. coli was used as crude enzyme to conduct the glycosyltransfering reaction, and the reaction condition was identical to that of Example 4.
The reaction was conducted under 35° C. for 12 hrs. 100 μL of butanol was added to stop the reaction and the products were extracted. Upon vacuum drying, the product was dissolved by methanol. TLC was first used to detect the reaction product.
as §3, with “ginsenosides” for “ginsenosides Rh2”, “ginsengenins” for “F2”, “lysis” for “lysate”, “enzymes. The lysis supernatant of recombinant E. coli expressing empty vectors was used as control.” for “enzymes.”, “hrs,” for “hrs, and”
The reaction was conducted under 35° C. for 12 hrs, and then stopped by adding 100 μL of butanol. The product were extracted, dried in vacuum, and dissolved in methanol. The reaction products were first detected by thin layer chromatography (TLC) (FIG. 35).

[5] = Glycosyltransfering reaction with crude enzyme, substrate PPT; settings: for glycosylation of C6-OH of PPT (product Rg1 or Rh1) / glycosylation of C20-OH of PPT (product F1): crude enzyme: lysate supernatant of recombinant yeast, UDP-glucose, 35° C., 12 hrs, TLC
Experimental: as §4, §5, §6, §7, §1
as §3, with “ginsenosides” for “ginsenosides Rh2”, “ginsengenins” for “F2”, “lysis” for “lysate”, “enzymes. The lysis supernatant of recombinant E. coli expressing empty vectors was used as control.” for “enzymes.”, “hrs,” for “hrs, and”

[6] = Glycosyltransfering reaction with crude enzyme, substrate DM; settings: crude enzyme: lysate supernatant of recombinant yeast; UDP-glucose, 35° C., 12 hrs; TLC
Experimental: as §4, §5, §6
as §3, with “ginsenosides” for “ginsenosides Rh2”, “ginsengenins” for “F2”, “lysis” for “lysate”, “enzymes. The lysis supernatant of recombinant E. coli expressing empty vectors was used as control.” for “enzymes.”, “hrs,” for “hrs, and”

[7] = Glycosyltransfering reaction with crude enzyme, substrate Rh2; settings: crude enzyme: lysate supernatant of recombinant yeast; UDP-glucose, 35° C., 12 hrs; TLC
Experimental: as §4, §5
(§8) The reaction products were first detected by thin layer chromatography (TLC). […]
as §2, §3

[8] = Glycosyltransfering reaction with crude enzyme, substrate Rg3; settings: crude enzyme: lysate supernatant of recombinant yeast; UDP-glucose, 35° C., 12 hrs; TLC
Experimental: as §4, §5, §8

[9] = Glycosyltransfering reaction with crude enzyme, substrate Rh1; settings: crude enzyme: lysate supernatant of recombinant yeast; UDP-glucose, 35° C., 12 hrs; TLC
Experimental: as §4, §5, §8

[10] = Glycosyltransfering reaction with crude enzyme, substrate Rg2; settings: crude enzyme: lysate supernatant of recombinant yeast; UDP-glucose, 35° C., 12 hrs; TLC
Experimental: as §4, §5, §6

[11] = Glycosyltransfering reaction with crude enzyme, substrate Rf; settings: crude enzyme: lysate supernatant of recombinant yeast; UDP-glucose, 35° C., 12 hrs; TLC
Experimental: as §4, §5, §6

[12] = crude enzyme from recombinant yeast, HPLC

Molecule | extension of C3 glycosyl of F2 by one more glycosyl (product Rd) [1] | glycosylation site: The first glycosyl at C-3 [2] | extension of C3 glycosyl of Rh2 by one more glycosyl (product Rg3) [3] | transformation of PPD into CK [4, 12] | transformation of PPD into CK ([4]; crude enzyme: cell lysis supernatant of recombinant E. coli, 35° C., 12 hrs, TLC) | glycosylation of C20-OH of PPD (product CK) ([4]; 35° C., 12 hrs, TLC) | transformation of PPT into F1 [5, 12] | glycosylation of C6-OH of PPT (product Rg1 or Rh1) [5] | glycosylation of C20-OH of PPT (product F1) [5] | glycosylation of C20-OH of DM (product 20-O-β-(D-glucopyranosyl)-dammarendiol II) [6] | glycosylation of C20-OH of Rh2 (product F2) [7] | glycosylation of C20-OH of Rg3 (product Rd) [8] | glycosylation of C20-OH of Rh1 [9] | glycosylation of C20-OH of Rg2 [10] | glycosylation of C20-OH of Rf [11] | glycosylation site: C6 [2] | glycosylation site: C20 [2] | extension of carbohydrate chain [2]
B1 | could be extended by one more glycosyl | ✓ | could not be catalyzed |  |  |  |  |  |  |  |  |  |  |  |  |  |  | 
B2 |  |  |  | substantially transformed | could transform PPD into CK | glycosylated the C20-OH | substantially transformed | C6-OH could be further glycosylated | glycosylated the C20-OH | could also glycosylate C20-OH | further glycosylated at C20-OH | further glycosylated at C20-OH | could not be catalyzed | could not be catalyzed | could not be catalyzed | ✓ | ✓ | could not catalyze
B3 |  |  |  |  |  | glycosylated the C20-OH |  | C6-OH could be further glycosylated | glycosylated the C20-OH | could also glycosylate C20-OH | further glycosylated at C20-OH | further glycosylated at C20-OH | could not be catalyzed | could not be catalyzed | could not be catalyzed | ✓ | ✓ | could not catalyze
B4 |  |  |  |  |  | glycosylated the C20-OH |  | C6-OH could be further glycosylated | glycosylated the C20-OH | could also glycosylate C20-OH | further glycosylated at C20-OH | further glycosylated at C20-OH | could not be catalyzed | could not be catalyzed | could not be catalyzed | ✓ | ✓ | could not catalyze
B5 | could be extended by one more glycosyl | ✓ | could not be catalyzed |  |  |  |  |  |  |  |  |  |  |  |  |  |  | 
